Results published in US20020004209A1, “Use of SLIM3 for binding to molecules” (Schering Aktiengesellschaft Patents, priority 1999, published 2002).

Target: T1, androgen receptor (Homo sapiens, UniProt P10275)
T1 construct: expressed in transfected cells; host or cells: 293 cells
T1 sequence (P10275 1-920): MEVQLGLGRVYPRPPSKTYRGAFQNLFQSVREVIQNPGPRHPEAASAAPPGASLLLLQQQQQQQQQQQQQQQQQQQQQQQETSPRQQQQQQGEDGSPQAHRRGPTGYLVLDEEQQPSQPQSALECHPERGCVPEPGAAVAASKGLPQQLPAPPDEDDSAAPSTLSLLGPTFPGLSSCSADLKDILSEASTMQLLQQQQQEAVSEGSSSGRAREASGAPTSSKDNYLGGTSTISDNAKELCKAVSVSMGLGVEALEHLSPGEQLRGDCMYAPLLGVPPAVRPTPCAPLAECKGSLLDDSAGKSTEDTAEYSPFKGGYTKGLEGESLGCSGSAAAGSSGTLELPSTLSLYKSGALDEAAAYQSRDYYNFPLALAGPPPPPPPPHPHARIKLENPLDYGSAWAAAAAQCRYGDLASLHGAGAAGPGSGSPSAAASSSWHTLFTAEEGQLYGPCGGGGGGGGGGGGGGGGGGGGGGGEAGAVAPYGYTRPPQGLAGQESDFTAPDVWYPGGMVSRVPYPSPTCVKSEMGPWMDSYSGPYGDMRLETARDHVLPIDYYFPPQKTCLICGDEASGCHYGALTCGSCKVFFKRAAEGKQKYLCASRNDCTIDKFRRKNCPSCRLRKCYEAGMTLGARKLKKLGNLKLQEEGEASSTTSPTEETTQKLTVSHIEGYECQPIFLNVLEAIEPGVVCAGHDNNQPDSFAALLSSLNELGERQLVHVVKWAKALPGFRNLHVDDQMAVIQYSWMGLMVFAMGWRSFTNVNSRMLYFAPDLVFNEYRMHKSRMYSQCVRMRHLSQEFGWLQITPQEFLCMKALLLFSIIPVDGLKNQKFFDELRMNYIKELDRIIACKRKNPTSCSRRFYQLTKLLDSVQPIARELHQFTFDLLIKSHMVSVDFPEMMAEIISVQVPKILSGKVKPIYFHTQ
T1 sequence (Q14192 1-279 partner): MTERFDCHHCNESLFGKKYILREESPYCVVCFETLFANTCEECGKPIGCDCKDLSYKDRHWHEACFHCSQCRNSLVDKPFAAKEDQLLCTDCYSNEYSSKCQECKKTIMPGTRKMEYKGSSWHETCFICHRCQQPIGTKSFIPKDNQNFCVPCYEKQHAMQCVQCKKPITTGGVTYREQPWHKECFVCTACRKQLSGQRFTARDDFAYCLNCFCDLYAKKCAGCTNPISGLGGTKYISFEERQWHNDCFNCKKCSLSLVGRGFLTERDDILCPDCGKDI
Assay: androgen receptor co-activation, MMTV-LUC or proteasin-Luc reporter, transient transfection
Type: cell-based
Conditions: 293 cells; with R1881; increasing amount of SLIM3-expression plasmid

SLIM3: LIM-domain protein of 279 amino acids, co-activator for nuclear receptors AR and ERβ
additional super-induction of the reporter gene: three-fold to five-fold
